{"source": "patent US11441131B2", "about": "“Heparosan synthases and use thereof for saccharide synthesis” (The Regents of the University of California, priority 2019, dated 2022)", "molecules": {"B1": {"name": "D222N (protein)", "chain": "MGSSHHHHHHSFEKIYTYNQALEAKLEKDKQTTSITDLYNEVAKSDLGLVKETNSANPLVSIIMTSHNTAQFIEASINSLLLQTYKNIEIIIVDDDSSDNTFEIASRIANTTSKVRVFRLNSNLGTYFAKNTGILKSKGDIIFFQDSDDVCHHERIERCVNILLANKETIAVRCAYSRLAPETQHIIKVNNMDYRLGFITLGMHRKVFQEIGFFNCTTKGSNDEFFHRIAKYYGKEKIKNLLLPLYYNTMRENSLFTDMVEWIDNHNIIQKMSDTRQHYATLFQAMHNETASHDFKNLFQFPRIYDALPVPQEMSKLSNPKIPVYINICSIPSRIAQLQRIIGILKNQCDHFHIYLDGYVEIPDFIKNLGNKATVVHCKDKDNSIRDNGKFILLEELIEKNQDGYYITCDDDIIYPSDYINTMIKKLNEYDDKAVIGLHGILFPSRMTKYFSADRLVYSFYKPLEKDKAVNVLGTGTVSFRVSLFNQFSLSDFTHSGMADIYFSLLCKKNNILQICISRPANWLTEDNRDSETLYHQYRDNDEQQTQLIMENGPWGYSSIYPLVKNHPKFTDLIPCLPFYFL"}, "B2": {"name": "D500N (protein)", "chain": "MGSSHHHHHHSFEKIYTYNQALEAKLEKDKQTTSITDLYNEVAKSDLGLVKETNSANPLVSIIMTSHNTAQFIEASINSLLLQTYKNIEIIIVDDDSSDNTFEIASRIANTTSKVRVFRLNSNLGTYFAKNTGILKSKGDIIFFQDSDDVCHHERIERCVNILLANKETIAVRCAYSRLAPETQHIIKVNNMDYRLGFITLGMHRKVFQEIGFFNCTTKGSDDEFFHRIAKYYGKEKIKNLLLPLYYNTMRENSLFTDMVEWIDNHNIIQKMSDTRQHYATLFQAMHNETASHDFKNLFQFPRIYDALPVPQEMSKLSNPKIPVYINICSIPSRIAQLQRIIGILKNQCDHFHIYLDGYVEIPDFIKNLGNKATVVHCKDKDNSIRDNGKFILLEELIEKNQDGYYITCDDDIIYPSDYINTMIKKLNEYDDKAVIGLHGILFPSRMTKYFSADRLVYSFYKPLEKDKAVNVLGTGTVSFRVSLFNQFSLSDFTHSGMANIYFSLLCKKNNILQICISRPANWLTEDNRDSETLYHQYRDNDEQQTQLIMENGPWGYSSIYPLVKNHPKFTDLIPCLPFYFL"}, "B3": {"name": "T475A (protein)", "chain": "MGSSHHHHHHSFEKIYTYNQALEAKLEKDKQTTSITDLYNEVAKSDLGLVKETNSANPLVSIIMTSHNTAQFIEASINSLLLQTYKNIEIIIVDDDSSDNTFEIASRIANTTSKVRVFRLNSNLGTYFAKNTGILKSKGDIIFFQDSDDVCHHERIERCVNILLANKETIAVRCAYSRLAPETQHIIKVNNMDYRLGFITLGMHRKVFQEIGFFNCTTKGSDDEFFHRIAKYYGKEKIKNLLLPLYYNTMRENSLFTDMVEWIDNHNIIQKMSDTRQHYATLFQAMHNETASHDFKNLFQFPRIYDALPVPQEMSKLSNPKIPVYINICSIPSRIAQLQRIIGILKNQCDHFHIYLDGYVEIPDFIKNLGNKATVVHCKDKDNSIRDNGKFILLEELIEKNQDGYYITCDDDIIYPSDYINTMIKKLNEYDDKAVIGLHGILFPSRMTKYFSADRLVYSFYKPLEKDKAVNVLGAGTVSFRVSLFNQFSLSDFTHSGMADIYFSLLCKKNNILQICISRPANWLTEDNRDSETLYHQYRDNDEQQTQLIMENGPWGYSSIYPLVKNHPKFTDLIPCLPFYFL"}, "B4": {"name": "T477A (protein)", "chain": "MGSSHHHHHHSFEKIYTYNQALEAKLEKDKQTTSITDLYNEVAKSDLGLVKETNSANPLVSIIMTSHNTAQFIEASINSLLLQTYKNIEIIIVDDDSSDNTFEIASRIANTTSKVRVFRLNSNLGTYFAKNTGILKSKGDIIFFQDSDDVCHHERIERCVNILLANKETIAVRCAYSRLAPETQHIIKVNNMDYRLGFITLGMHRKVFQEIGFFNCTTKGSDDEFFHRIAKYYGKEKIKNLLLPLYYNTMRENSLFTDMVEWIDNHNIIQKMSDTRQHYATLFQAMHNETASHDFKNLFQFPRIYDALPVPQEMSKLSNPKIPVYINICSIPSRIAQLQRIIGILKNQCDHFHIYLDGYVEIPDFIKNLGNKATVVHCKDKDNSIRDNGKFILLEELIEKNQDGYYITCDDDIIYPSDYINTMIKKLNEYDDKAVIGLHGILFPSRMTKYFSADRLVYSFYKPLEKDKAVNVLGTGAVSFRVSLFNQFSLSDFTHSGMADIYFSLLCKKNNILQICISRPANWLTEDNRDSETLYHQYRDNDEQQTQLIMENGPWGYSSIYPLVKNHPKFTDLIPCLPFYFL"}}, "key": {"[1]": {"assay": "α1-4-GlcNAcT activity comparison of His6-Δ80PmHS2 and its D222N and D500N mutants", "assay_type": "biochemical", "protocol": "Reactions were stopped by heating reaction mixture at 70° C. for 10 min, followed by incubation on ice for 30 min and centrifugation at 11,337 g for 15 min. Supernatants were analyzed similarly to that described above for […]."}, "[2]": {"assay": "β1-4-GlcAT activity comparison of His6-Δ80PmHS2 and its D222N and D500N mutants", "assay_type": "biochemical", "protocol": "Reactions were stopped by heating reaction mixtures at 70° C. for 10 min, followed by incubation on ice for 30 min and centrifugation at 11,337 g for 15 min. Supernatants were analyzed similarly to that described above for the coupled-enzyme reverse glycosylation assay."}, "[3]": {"assay": "Reverse glycosylation assay mimicking synthetic conditions", "assay_type": "biochemical", "settings": "30 mM UDP, conditions mimicking synthetic reactions", "protocol": "Reactions were stopped by heating reaction mixtures at 70° C. for 10 min, followed by incubation on ice for 30 min and centrifugation at 11,337 g for 15 min. Supernatants were analyzed similarly to that described above for time-course reverse glycosylation assays."}, "[4]": {"assay": "Protein expression and purification", "parameters": "species or system E. coli BL21 (DE3)", "settings": "per L culture", "protocol": "Protein expression and purification. The plasmid-bearing E. coli BL21(DE3) cells were cultured in 1 L of LB-rich media (10 g/L tryptone, 5 g/L yeast extract and 10 g/L NaCl) supplemented with ampicillin (100 μg/mL). Expression of the target protein was achieved by inducing the E. coli culture with 0.1 mM of isopropyl-1-thio-β-D-galactopyranoside (IPTG) when OD600 nm reached 0.8-1.0, followed by incubating at 20° C. for 20 h with shaking at 250 rpm in a C25KC incubator shaker (New Brunswick Scientific, Edison, N.J.). Histidine-tagged target proteins were purified from cell lysate. To obtain the cell lysate, cell pellet harvested by centrifugation at 2,795 g for 50 min was resuspended (25 mL/L cell culture) in lysis buffer (Tris-HCl, 100 mM, pH 8.0 with 0.1% Triton X-100). Sonication protocol was 2 s (sonication)/3 s (rest) for a total of 6 min on ice. Lysed cells were centrifuged at 5,000 g for 50 min and the supernatant (lysate) was collected. Purification of histidine-tagged proteins from the lysate was achieved using a Ni′-resin column. The column was pre-equilibrated with 10 column volumes of binding buffer (5 mM imidazole, 0.5 M NaCl, 50 mM Tris-HCl, pH 7.5). The lysate was then loaded, and the column was washed with 10 column volumes of binding buffer and 10 column volumes of washing buffer (16 mM imidazole, 0.5 M NaCl, 50 mM Tris-HCl, pH 7.5). The target protein was eluted with Tris-HCl buffer (50 mM, pH 7.5) containing imidazole (200 mM) and NaCl (0.5 M). The fractions containing the purified enzymes were collected, and stored at 4° C."}, "[5]": {"assay": "α1-4GlcNAc-transferase activity of designed mutants", "assay_type": "biochemical"}}, "note": "Where two headings read alike, the source gives them in different places."}
{"molecule": "B1", "values": [{"measurement": "α1-4-GlcNAcT activity relative to His6-Δ80PmHS2", "setting": "[1]", "result": "retained"}, {"measurement": "β1-4-GlcAT activity relative to His6-Δ80PmHS2", "setting": "[2]", "result": "lost"}, {"measurement": "β1-4-GlcAT activity relative to His6-Δ80PmHS2", "setting": "[2]; listed as D291N", "result": "completely removed"}, {"measurement": "reverse glycosylation oligosaccharide products", "setting": "[3]", "result": "no reverse glycosylation oligosaccharide products were observed"}, {"measurement": "expression level", "setting": "[4]", "result": "50 to 60", "unit": "mg/L"}]}
{"molecule": "B2", "values": [{"measurement": "decrease of α1-4-GlcNAcT activity relative to His6-Δ80PmHS2", "setting": "[1]", "result": 548, "unit": "fold"}, {"measurement": "β1-4-GlcAT activity relative to His6-Δ80PmHS2", "setting": "[2]", "result": "retained"}, {"measurement": "reverse glycosylation oligosaccharide products", "setting": "[3]", "result": "no reverse glycosylation oligosaccharide products were observed"}, {"measurement": "expression level", "setting": "[4]", "result": "60 to 70", "unit": "mg/L"}]}
{"molecule": "B3", "values": [{"measurement": "α1-4GlcNAc-transferase activity", "setting": "[5]", "result": "retained"}]}
{"molecule": "B4", "values": [{"measurement": "α1-4GlcNAc-transferase activity", "setting": "[5]", "result": "retained"}]}
